Assay: label from the status in PepcDB records

Sequence | protein production
MLKKITCYTVLYIFILLNQPIQAQTYVIPDANFKNYLALNIPYVLNSNQELIISNAKIFTGTINCVGMNIEDLSGLQYFYKLTQLNCNSNQLTFLPSLDSLKQLQHMWVYNNKLTSIPSVNQLTNLQTLNVKNNQLTNLPSLTGMTALKSLDCSSNKLTALPDLSTLLNLEEMYCYINFITNIPSVSNLLHLKIFNIENNAIALLPDISQNTKLEILQFDLNQIETIPPLTTLTALKQLIFAHNKISTLPDLSANTALFIITGDNNQLTHIPDLSGFDNLTHVELSHNQLTFEDILPSSKHPQFSTVFNIQPQDSLNVNQPVSAVKGSTITLPLQFDLAVSGSTYNWYKNNIYLSSTTIPVLTLSNITEMNAGRYTCIITNNTSRLTGITLHARSYSILVEPCIKFSYINYEITANDCSKGAAIQIDHTQISALNTPLTYALHPLNNQSSITSASAVLNDVMPGRYSLTISDVNNCSVELQNYIFIPVPAGCMDSFTPNGDGLEDTYLIDKPGYTKIYNKNGTLIRTLNTPAAWDGSDESGKLCPMGYYIIIIDGKEKTGVVLIN | failed
MAVLVTGATGFIAQWVLDCLLKENYQVIGTVRSQEKGDKLHKQFGSPSKLSFEIVKDISDTEAFEPLFKKRGKEIDIVLHMASPCHFNTSDYEKDLLIPALNGTKGVLNAIKKYGDVKKVVVTSSYAAITDMVNSADGSLVFTEKDWNPATWERCQTDAVNAYCASKKFAEQAAWEFSKETGVSLTTINPVFVFGPQKFDEDVTSQLNTSNEIINGLIHSKPGDKLEPDYHSAYVDVRDVARAHLVAFQKDTTGERLGLSNGAFNCQSILDILNEKFPQLDITKGPEPGMGDTKPGAVFDNRHSKEVLAFPFISLEQCVYDTVAQVLKKEGRLLEHHHHHH | not failed
MNKAVETRLNKSRPGGWIPRDGAHIERWIRRIKHYVTQQPRALVPPIAELRDLVHANPALHAQAEAMFKEAWRHKHLTPLGQPEVRSFEEFLGLLNGIMTTAPEAYQDIPSHEPSGLIGFPINALLDWPMATQSGYHFFANALINQQFKKILDYWAQFLQSPASRYVLNEPVSRLDQETLVVPWLGKVAKAEMVKVANEAVGEGPNPTPGSFEQIFECEPAAEYHGFSCWDDFFTRRFRAGVRPVSAPTDDGVIVNACESAPLQVRKEVSRSDQFWLKGQPYSLDNMLDFDDLAPRFEGGTVYQAFLSALSYHRWHSPVSGTIRKVRIVNGTYYLENQFEGFADPQGADPSAPNNSQPFLTSVATRALIFIEADNPKIGLMCVVPVGMAEVSSCEITVQAGDRVQKGDPLGMFHFGGSTHCLLFRPGVRLEFDFHGQIPGLDATNMRLNTAIARVK | failed
MSEFRPVPTTDREACQRILQYAFAPETGPVPPDPDGDWPPSLFDQRGLYDGGTLRAVCKLYFFDTTVRGAATTVGGLGAVATPPEHRGQGLAADLCRHALSAYRKADVGFVTLWPFSTPFYHRLGWGTANTYRRFDLPPSALPDPSTAGQLVRLDADDWERLRRVETAAAAGTALSLRRSEAWWRERTLADWDDDGVPYCYGYERDGELQGYVVYTVADDANNTLSVSNFAAVDEEARRALFAFLGHHGAQIERVTLQLPPDTDLFHRVDDPGAVDCTVEAGPMVRLTDVDYLERLDWPGGDLDCTLSVNDPLLDHNDGLFRLSVNGGTATVDPLPASDSKADVAVDIATLSQLAVGTHGVDAAERLAGLEMFDDSVRGPLADVFQPESVYLGEFF | failed
MTLTSGDKQGNTPGQASDTERWASLIGGGALVLLGLRQASLRGVLTALAGGGLIYQGATKQSTIQQAQEAIGINKPIKVEKTVTINKPADELYRYWHNFENLPTFMKHLKSVKVYNEKRSHWIANAPLGNSVEWDADILEDRENEFISWASAEGADVENSGFVRFQKAPGDVPGQAASRLRGTEVKVVLEYNLPGGALAAVVAKLFGEEPEQQIGDELRRFKMLMEAGEIATTEGQPSGRK | failed
MKPTNKAQDDDAVFALSTEVNHKLDLHQSSAEALRLAGVYTRQSCVLDLYHGYRSDDEDTEPDEEDGRLQTVREYHENGMLKLMRTFVRRLRRDATDPTAESSYYDRVVEEKHYDPSGICRVDMHFALGQPYLYRKHYYPNNRLKSEKVFFVEDEETMRARKVGHWRTYYENGNIQSEIIYNKDGVRCGFCKRYAIDGAIEWVKDYTREQEERLQAFNAKRGNLDLTVTDAARVLGLEGDWCSHVVNRTFRSKCAPLHPDWRRTAGDKAGETWEEEQRTEAFIRLSRAREVLLKFLETHPRECSCERGGA | not failed
MKKILILFFLLFTVNAFTQNYADYMSSGLDAYARSDWSSALFSFQKAMEVSKNSLDEPLYWLIMANASARNYTVALNDIETFLKRFPNSSKAAEVIYQQGRICCLSAKHDQSINILYGFLRKYPNHRQTASAYYWIGENLYMVGRLKDARTIFSRVIIDYPSSAKVEPSRYKIALIDQASTQDELLKLLKISHEELLKLSEESEKNKKIYEQTIAAYQRQSSDAGGDMRIAELSEQLKMERKHNEELHDQLVMLELKNQELLATLAKMDAKYTSEMAADGETPAADYSDPKAKRAAIEALIKKAKILQSMYNQLLEGNGQ | failed
MRIEVVNVSHIFHRGTPLEKKALENVSLVINEGECLLVAGNTGSGKSTLLQIVAGLIEPTSGDVLYDGERKKGYEIRRNIGIAFQYPEDQFFAERVFDEVAFAVKNFYPDRDPVPLVKKAMEFVGLDFDSFKDRVPFFLSGGEKRRVAIASVIVHEPDILILDEPLVGLDREGKTDLLRIVEKWKTLGKTVILISHDIETVINHVDRVVVLEKGKKVFDGTRMEFLEKYDPRFFTSKMLVMRRLVLKGEDPFSMSDDELLERVCNS | not failed
MSLLDFYIIWRGDMLFATVVPIAYFLLYLKNKQVTFVFLKFVMAFVICLYWATYACTFFYSYYDVIGWFKILIIPVFSIYSGFVLHLLKSKKKKVFFLISIVYIIFWCILIFWHCMSSM | failed
MKVLGISCSPRPGQTTDRLVQEVLNNIEAPTEFVSLSGRRIGPCLGCLGCVADNVCKVRDDMGELRPLIVEADALVIGAPNYFGMLNGLAHCFLERLYQFRHQEGGALHGKLGVAVGVGSAMPDSAVRDIEKFFSFSRIEPVGNVTAIGPASCFNCGHGEECREGAIHRVFGPGTKITADLTPNLSKQPDSLTAARTLGEKLTQRLKQG | failed
MTWLMVAVVVVVAAAGLLRWRRPAWYWLTFGALVATVRILVRYASVMEACGLTVPPSRWRLALARMTNRPAPESRPPRILRLRPTRTGLVLRLKLQPGQDAFDVAAATDRLRHSFGVYGVTSRELRSGVVEVRMTGYDVLQRVQMPAPAEPRPMRIPVALREDGAVHYRDYRAVPHGLTLGATESGKSVYQRNLVAGLAPHHVALVGIDCKQGVELFPLARRFSALADNPDTALDLLEALVGHMKDVYQLIRAEQRISVAVPDAEIAADIWDLREDLRAVPVVVLVDEVAELALFASKDEEKRRDRIITALVRLAQLGRAAGIYLEICGQRFGSELGKGITMLRAQLTGRTAHRVNDETSADMAFGDLSPDAVLAAIQLPTDTPGIAVTGDSTGGWARIRAPHTTKSFPDRQKRLAELWLIEIASDMSRGRYVDPRAARVTFKGYAVKWLETHGIDPASQVVVEQRLRLHAFRLIGSRPLDSFRPEHIRGLVSALENDPAVSGGYARNIYGDVRAVLSAAVDDGLLPRNPCSAKSVRPPAVEQRRVVPWLPEQVQAVRAALPQRYRPMVDMGAGCGLRQGEIVGLAEDAVDFASGIVRVLRQVKLIRGKAVFAPPKCNKERDVPLPPSVADALPAHMDAFKPVEITLPWRKPDGPKVSARLLFTNTASGLVWRSNFNVQEWKPALAAAGLISEAGADGKYESAREHGMHALRHFYASVLLDAGESIKAVSEYLGHADPGLTLRVYAHLMPSSQERTRSAIDQSLRFSG | failed
DETIHLERGENLFEIHINKVTFSSEVLQASGDKEPVTFCTYAFYDFELQTTPVVRGLHPEYNFTSQYLVHVNDLFLQYIQKNTITLEVHQAYSTEYETIAACQLKFHEILEKSGRIFCTASLIGTKGDIPNFGTVEYWFRLRV | not failed
ANKKIDHREEAIELLKQDAKRILQLIKVQMDNLTLPQCPAYEEVLDTQMYGLSREINFATRLGLIEPEEGKKLISTLEKELSALHELSMSK | failed
MKNITKLSTVALSLLLCTACAASNTSTSKTQSHHPKQTKLTDKQKEEPKNKEAADQEMHPQGAVDLTKYKAKPVKDYGKKIDVGDGKKMNIYETGQGKIPIVFIPGQAEISPRYAYKNLIERLSKKYKIYTVEPLGYGLSDIPTKPRTLENITKEIHTGLNKIGVKNFYLAAHSLGGMYSLNYAKNYPEEVRGFIGMDTSTPWMEGEQKTKYDPESAKWAMKLPDVDDKTNEQYLSIAKKINGNKSQRDEDERLGDNLGKLKNVKFPKGMPTKYFLADQSVEGIKLRQADFKGLKNWDQQHIDLSEDPKDASVEIFKGSHNIFQTQYEHMAKAIDGFIQSHQK | failed
MVNPTIPDDLLAKIAKTVAHKCWWDLQPLLRSGRRGRDVVYRPDVLKGANIFSMCEDPDDYQVDGSHHPSGPQEEGRHRAFFKRCVDAGNPTTMYFEALCVLTHERDIKGAINLLRPHVPSQAHATLACAILYIIDGNDYMGAIFLNLFGRNHYPLGTEETRDLCEEFLEDLKKFRPPYNNTYGSTFSYPNSHGIKTPDCALLCYIVSGPFKNVCNCCYLWWCARRVSQML | failed
MSIVIMFKYVSDVSNIYHNIITSFIENKNIAIDATLGNGHDCDFLSELFKKVYAFDIQEEAVNSYKSKNKENVEVILDSHENFETYIKEENVDCIVYNLGYLPGNNKEVTTVAHSTLKSIEIGLDLLGDNGLMIIALYSGHEEGKKEKDAVLQFTSKLPKNKYGVLHTEFTNRAKSAPSLVVIEKKFK | failed
MKGTFTNLLVLLLIALVCANVGARKLISEDTQFKDEKSFLGGGGSGDGLGLGLGGGAGLGGLGIGAGIGAGAGLGLGGGGGGLGGGGGGLLGGGGFGGGAGGGLGGLP | failed
MSEKELELLARIEELERHTWRNSAILRAVAMVAGTAMIGIIVASGVVGGGHGSHWTGPAWNTMWLYGLFAANAVSMFWTTHKD | failed
MEEDVPEAEKLMCPKEVVEKNKDKQEEEEDEKGAKGGILNNLISNFMDCTTTTVEGKSSENIQKSLCEDEDEKEQESPSVGILEKIISHLPEDVAPTTDEAAILIHSAID | failed
MKGLRRLVLDVLKPHEPKTIVFALKLSELENVDGVNIHLSEIDQATENIKITILGNNLDYEQIKGVIEDLGGVIHSVDEVVAGKIIVESVKTEQDLEHHHHHH | failed
MSVMYKKILYPTDFSETAEIALKHVKAFKTLKAEEVILLHVIDEREIKKRDIFSLLLGVAGLNKSVEEFENELKNKLTEEAKNKMENIKKELEDVGFKVKDIIVVGIPHEEIVKIAEDEGVDIIIMGSHGKTNLKEILLGSVTENVIKKSNKPVLVVKRKNS | not failed
MRLTVWTYEGPPQVGAMRVATAMRGVHYVVHAPQGDSYADLLFTMIERRPGRPAVSYTSFQARDLGTDTAALFKTAAADAVARFQPEALLVGSSCTGELIQDDPGGLAKALGLSIPVIPLELPSYQRKENWGAAETFYRLVRTMAGPAAPAPGTPRAPRPAGQRPRCNLLGPTALGFRHRDDVQAVVALLGRMGVDVAVVAPLGASPADLARLGEADFNVVLYPEIADTAVRWLERAFGQPSVRTVPIGVGATRAFIAEVAAVAGVDPAPALAEESLRLPWWSRSVDSTYLTGKRVFIFGDATHAVAAARVATEEFGFEVVGLGTYAREYARELRACAGALGLEALITDDYLDVEAAIADAHPDLVLGTQMERHIAKRLGVPCAVISAPVHVQDFPARTAPQMGFDGANVLFDTWVHPLMMGLEEHLLMMFRDDFEFHGDAAPSHLSAHRPTGEAVGDAVGEPPAAPRDQAAPAATLDGSAAQSDPARTTPPGAPSWEDSAEKELRKVPFFVRGKARRNTERFAAERGLASISVETLYDAKAHFGR | failed
MKLYIYDHCPFCVKARMIFGLKNIPVELNVLQNDDEATPTRMIGQKMVPILQKDDSRYLPESMDIVHYVDNLDGKPLLTGKRNPAIEEWLRKVNGYVNQLLLPRFAKSAFDEFSTPAARQYFIRKKEASSGSFDNHLAHSAGLIKKIGDDLRLLDKLIVQPNAVNGELSEDDIHLFPLLRNLTLVAGIHWPTKVADYRDNMAKQTQINLLSSMAI | not failed
